Test results published in patent US11066455B2, “Tmem100 peptides and variants thereof and their use in treating or preventing diseases or conditions” (The Johns Hopkins University, priority 2014, dated 2021).
* marks the point of attachment. Myristoyl = CCCCCCCCCCCCCC(=O)*

Tests used:
[1] = test system: ongoing neuropathic pain in SNL rats; assay: Conditioned place preference test for ongoing pain in SNL rats; format: in vivo, rat; settings: intrathecal 50 μM, 10 μl; scramble peptide-paired chamber as comparison
Description: Ongoing, or spontaneous, pain, which is most bothersome to patients, is difficult to treat and difficult to study in animals. The conditioned place preference test has been successfully developed to reveal the presence of non-evoked, ongoing pain and pain relief based on the preference of an animal for the context paired with a pain-relief treatment. The conditioned place preference can also capture the aversive aspects of pain. Strikingly, many studies have shown that the rodent conditioned place preference test accurately reflects the effectiveness of human clinical treatments. Therefore, this test is a powerful approach to investigate the potential effectiveness of new treatments and mechanisms for relief of ongoing pain. Two previous studies have examined the role of TRPA1 in ongoing pain by the conditioned place preference test. […] Because the antagonists used in those studies (HC030031 and Chem5861528) target TRPA1 monomers, it is possible that T100-Mut can inhibit ongoing pain by modulating the TRPA1/V1 complex. This possibility was tested in rodents with SNL-induced ongoing pain using the conditioned place preference test. […] Systemic administration of gabapentin, an analgesic that is known to alleviate neuropathic pain, was used as a positive control (FIG. 16B).

TRPA1 [2] = test system: T1, TRPA1; assay: MO-evoked Ca2+ influx into CHO cells expressing TRPA1+TRPV1; format: cell-based; settings: TRPA1+TRPV1+Tmem100-3Q (1:1:4) CHO cells
T1 construct: MO (10 μM)-evoked Ca2+ influx; other: TRPA1+TRPV1+Tmem100-3Q (1:1:4) CHO cells; MO (10 μM)-gated whole-cell current density; other: Vh=-60 mV; TRPA1+TRPV1+Tmem100-3Q (1:1:4) CHO cells; MO (10 μM)-induced single-channel activity (NPo); co-expressed with TRPA1+TRPV1 (1:1:4) in CHO cells
Experimental: Calcium imaging assays were performed as previously described (Liu et al., 2009). Cells were loaded with 2 μM fura 2-acetomethoxy ester (Molecular Probes) for 30 min in the dark at room temperature or for 45 minutes at 37° C. for DRG and cell lines, respectively. After washing, cells were imaged at 340 and 380 nm excitation to detect intracellular free calcium under a fluorescent microscope (Nikon Eclipse TE2000-S) and Lambda 10B shutter (Sutter Instrument). The cells were bathed in calcium imaging buffer (pH 7.45, 130 mM NaCl, 3 mM KCl, 2.5 mM CaCl2, 10 mM HEPES, 10 mM glucose, 1.2 mM NaHCO3, with sucrose to increase osmolarity to 290 mOsm). The reagents and buffers were applied through a gravity perfusion system at a rate of […], including mustard oil (Sigma 377430), cinnamaldehyde (Sigma C80687), menthol (Sigma M2780), and capsaicin (Sigma M2028). Cells with high baseline 340/380 values (>1.5) were excluded for analysis. For DRG neurons, IB4 staining was performed in the chamber with the dilution of 1:200 (Molecular Probes 121412) for 160 seconds before washing off at the end of each test. Images were processed and analyzed with NIS-Elements BR 2.30 software (Nikon). A responsive cell was defined as one that with greater than a 20% increase in the 340/380 ratio above the baseline. […] The data was analyzed with the experimenter blinded to the genotypes or constructs transfected.

TRPV1 = assay: Cell-attached single-channel recording in CHO cells, CAP-induced activity (NPo); format: cell-based; settings: Vh=-60 mV
Experimental: (§1) Recordings were made in cell-attached single-channel or whole-cell voltage clamp configurations at 22-24° C. from the somata of small-to-medium mouse DRG neurons (15-35 pF) or CHO cells. For whole-cell configuration, holding potential (Vh) is −60 mV. Data were acquired and analyzed using an Axopatch 200B amplifier and pCLAMP9.0 software (Molecular Devices, Sunnyvale, Calif.). Borosilicate pipettes (Sutter, Novato, Calif.) were pulled and polished to resistances of 3-5 MΩ (in whole-cell and single-channel pipette solutions). Access resistance (Rs) was compensated (40-80%) when appropriate up to the value 7-10 MΩ for whole-cell configuration. Whole-cell recording data were filtered at 0.5 kHz and sampled at 2 kHz. Single-channels currents were filtered with an 8-pole, low pass Bessel filter at 0.1 kHz and sampled at 0.5 kHz, since dwelling time (τ) of the TRPA1 and TRPV1 single-currents were >0.5 sec. Whole-cell recorded data were rejected when Rs changed >20% during recording, leak currents were >100 pA, or input resistance was <200 MΩ.
(§2) Single-channel unitary current (i) was determined from the best-fit Gaussian distribution of amplitude histograms. Single-channel activity was analyzed as NPo=I/i, where I is the mean total current in a patch and i is unitary current at this voltage. For single channel slope conductances, linear fitting was used separately for positive and negative holding potentials. The slope conductances presented in figures were determined from fitting negative hold potentials (from −60 to 0 mV). The single-channel recording data were analyzed with Clampfit 9 software. This has an “event detection analysis” function that analyzes current traces and determines the number of channels in the patch (N), how many sub-conductances are present, and what the main conductance is. In order to increase the accuracy of the Po measurement, only patches containing fewer than 3 channels were used. For patches containing both TRPA1 and TRPV1, only those with equal numbers of TRPA1 and TRPV1 were used. This was monitored in each recording by applying MO and then CAP.
(§3) Standard external solution (SES) for whole-cell patch recording contained (in mM): 140 NaCl, 5 KCl, 2 CaCl2, 1 MgCl2, 10 D-glucose and 10 HEPES, pH 7.4. Vehicle, which is 0.01% DMSO, was added to external solutions. The bath solution for single-channel recording (SES-SCh) of TRP currents consisted of (in mM): 100 K-gluconate, 4 KCl, 1 MgCl2, 1 EGTA, 10 D-glucose and 10 Hepes (pH 7.3). The standard pipette solution (SIS) for the whole-cell configurations contained (in mM): 140 KCl, 1 MgCl2, 1 CaCl2, 10 EGTA, 10 D-glucose, 10 HEPES, pH 7.3. […] The baseline activities of the cells were recorded for 1-2 min prior drug applications. […]

TRPA1 [3] = assay: Cell-attached single-channel recording in CHO cells, MO-induced activity (NPo); format: cell-based; settings: Vh=-60 mV; co-expressed with TRPA1 only (1:4) in CHO cells
Experimental: as §1, §2, §3

TRPA1 [4] = test system: T1, TRPA1; assay: as above; format: cell-based; settings: Vh=-60 mV; co-expressed with TRPA1+TRPV1 (1:1:4) in CHO cells
Experimental: as §1, §2, §3

[5] = co-expressed with TRPA1+TRPV1 (1:1:4) in CHO cells
[6] = co-expressed with TRPV1 only (1:4) in CHO cells

In the case of “myr-QRVLEQVLQNWSRRANVKQAQKFQVKCT-COOH (Myristoyl-QRVLEQVLQNWSRRANVKQAQKFQVKCT-OH; SMILES CCCCCCCCCCCCCC(=O)N[C@@H](CCC(N)=O)C(=O)N[C@@H](CCCNC(=N)N)C(=O)N[C@H](C(=O)N[C@@H](CC(C)C)C(=O)N[C@@H](CCC(=O)O)C(=O)N[C@@H](CCC(N)=O)C(=O)N[C@H](C(=O)N[C@@H](CC(C)C)C(=O)N[C@@H](CCC(N)=O)C(=O)N[C@@H](CC(N)=O)C(=O)N[C@@H](Cc1c[nH]c2ccccc12)C(=O)N[C@@H](CO)C(=O)N[C@@H](CCCNC(=N)N)C(=O)N[C@@H](CCCNC(=N)N)C(=O)N[C@@H](C)C(=O)N[C@@H](CC(N)=O)C(=O)N[C@H](C(=O)N[C@@H](CCCCN)C(=O)N[C@@H](CCC(N)=O)C(=O)N[C@@H](C)C(=O)N[C@@H](CCC(N)=O)C(=O)N[C@@H](CCCCN)C(=O)N[C@@H](Cc1ccccc1)C(=O)N[C@@H](CCC(N)=O)C(=O)N[C@H](C(=O)N[C@@H](CCCCN)C(=O)N[C@@H](CS)C(=O)N[C@H](C(=O)O)[C@@H](C)O)C(C)C)C(C)C)C(C)C)C(C)C) [scrambled]”, the “conditioned place preference: time in drug-paired chamber, SNL rats” value [1] is reported as “no effect”.

B1: Tmem100-3Q mutant (full-length, mouse) (protein)
chain: MTEESTKENLGAPKSPTPVTMEKNPKREVVVTTGPLVSEVQLMAATGGAELSCYRCIIPFAVVVFITGIVVTAVAYSFNSHGSIISIFGLVLLSSGLFLLASSALCWKVRQRNKKVQQQESQTALVVNQRCLFA
In the case of B1, the “MO (10 μM)-evoked Ca2+ influx” value (TRPA1 [2]) is reported as 321 ± 18.2 nM, the “CAP (100 nM)-induced single-channel activity (NPo)” value (from here on “CAP”) (TRPV1; [5]) is reported as 1.08±0.17 and the “CAP” value (TRPV1; [6]) is reported as 0.73±0.12. For the same molecule, the “MO (10 μM)-induced single-channel activity (NPo)” value (from here on “MO … (NPo)”) (TRPA1 [3]) was 1.05±0.14 and the “MO … (NPo)” value (TRPA1 [4]) was 0.16±0.06.

B2: Tmem100: 134-amino acid two-transmembrane protein, regulator of TRPA1 (SEQ ID NO: 1/2), expressed in cells (protein, listed as Homo sapiens, listed as Mus musculus)
chain 1: MTEEPIKEILGAPKAHMAATMEKSPKSEVVITTVPLVSEIQLMAATGGTELSCYRCIIPFAVVVFIAGIVVTAVAYSFNSHGSIISIFGLVVLSSGLFLLASSALCWKVRQRSKKAKRRESQTALVANQRSLFA
chain 2: MTEESTKENLGAPKSPTPVTMEKNPKREVVVTTGPLVSEVQLMAATGGAELSCYRCIIPFAVVVFITGIVVTAVAYSFNSHGSIISIFGLVLLSSGLFLLASSALCWKVRQRNKKVKRRESQTALVVNQRCLFA
B2 was tested, and the “CAP” value (TRPV1; [5]) was 0.82±0.14, the “CAP” value (TRPV1; [6]) was 0.45±0.1 and the “MO … (NPo)” value (TRPA1 [3]) was 0.64±0.18. For the same molecule, the “MO … (NPo)” value (TRPA1 [4]) was 1.05±0.14.
